For assay [1], the target named is IgE antibodies from sera of grass pollen allergy sufferers (human). Nature of the assay: cell-based or functional assay.
The target is the same in assay [2]. Nature of the assay: EAST inhibition test, four individual sera, plate-bound nPhl p 1, inhibitor up to 5 µg/ml.

Where only a bound is given, the exact number is not on record here.

B1: Phl p 1 NoCys Δ213-220 (histidine fusion protein) (protein, not shown: small tags and cut ends)
chain: IPKVPPGPNITATYGDKWLDAKSTWYGKPTAAGPKDNGGASGYKDVDKPPFSGMTGSGNTPIFKSGRGSGSSFEIKSTKPEASSGEPVVVHITDDNEEPIAAYHFDLSGIAFGSMAKKGDEQKLRSAGEVEIQFRRVKSKYPEGTKVTFHVEKGSNPNYLALLVKFVAGDGDVVAVDIKEKGKDKWIALKESWGAIWRIDTPEVLKGPFTVRGEAKDVIPEGWKADTAYESK
On to B1, for which the allergenic efficacy from A50 values, basophil activation test (CD203c), against reference nPhl p 1 in assay [1] is 100 to 1000 fold.

B2: Phl p 1 NoCys (histidine fusion protein) (protein, not shown: small tags and cut ends)
chain: IPKVPPGPNITATYGDKWLDAKSTWYGKPTAAGPKDNGGASGYKDVDKPPFSGMTGSGNTPIFKSGRGSGSSFEIKSTKPEASSGEPVVVHITDDNEEPIAAYHFDLSGIAFGSMAKKGDEQKLRSAGEVEIQFRRVKSKYPEGTKVTFHVEKGSNPNYLALLVKFVAGDGDVVAVDIKEKGKDKWIALKESWGAIWRIDTPEVLKGPFTVRYTTEGGTKGEAKDVIPEGWKADTAYESK
On to B2, for which, in assay [2], the percent of the maximum inhibitory action of nPhl p 1 was in the range of 20 to 50%.

B3: Phl p 1 NoCys Δ1-6, 115-119, 213-220 (histidine fusion protein) (protein, not shown: small tags and cut ends)
chain: GPNITATYGDKWLDAKSTWYGKPTAAGPKDNGGASGYKDVDKPPFSGMTGSGNTPIFKSGRGSGSSFEIKSTKPEASSGEPVVVHITDDNEEPIAAYHFDLSGIAFGSDEQKLRSAGEVEIQFRRVKSKYPEGTKVTFHVEKGSNPNYLALLVKFVAGDGDVVAVDIKEKGKDKWIALKESWGAIWRIDTPEVLKGPFTVRGEAKDVIPEGWKADTAYESK
With B3, the allergenic efficacy from A50 values, basophil activation test (CD203c), against reference nPhl p 1 in assay [1] was more than 1000 fold.

Source of the values: patent publication US20080267985A1.
